According to paper PMC9844198:

Molecular target: LD-CLIMP-63-FLAG (soluble CLIMP-63 luminal domain, C-terminal His6-FLAG tag) (human)
Assay: native MS; intact protein mass LC-MS under native-like conditions; MAbPac SEC-1 column, 50 mM ammonium acetate pH 7.5, QExactive HF Orbitrap, high-mass-range mode

- stoichiometry N: 3
Substance: LD-CLIMP-63-FLAG (soluble CLIMP-63 luminal domain, C-terminal His6-FLAG tag) (domain or fragment)
